{"source": "paper PMC5672800", "key": {"[1]": {"biological_target": "mouse melanocortin-1 receptor (mouse) (UniProt Q01727)", "sequence (Q01727 whole entry)": "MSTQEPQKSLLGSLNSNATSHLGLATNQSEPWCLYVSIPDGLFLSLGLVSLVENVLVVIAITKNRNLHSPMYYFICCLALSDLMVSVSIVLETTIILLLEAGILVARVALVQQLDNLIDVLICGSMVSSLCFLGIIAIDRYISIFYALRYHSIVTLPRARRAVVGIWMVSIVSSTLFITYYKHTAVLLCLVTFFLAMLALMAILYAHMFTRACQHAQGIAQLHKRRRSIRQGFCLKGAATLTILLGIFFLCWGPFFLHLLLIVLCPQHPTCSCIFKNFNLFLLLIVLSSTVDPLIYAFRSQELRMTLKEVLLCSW"}, "[2]": {"biological_target": "mouse melanocortin-5 receptor (mouse) (UniProt P41149)", "sequence (P41149 whole entry)": "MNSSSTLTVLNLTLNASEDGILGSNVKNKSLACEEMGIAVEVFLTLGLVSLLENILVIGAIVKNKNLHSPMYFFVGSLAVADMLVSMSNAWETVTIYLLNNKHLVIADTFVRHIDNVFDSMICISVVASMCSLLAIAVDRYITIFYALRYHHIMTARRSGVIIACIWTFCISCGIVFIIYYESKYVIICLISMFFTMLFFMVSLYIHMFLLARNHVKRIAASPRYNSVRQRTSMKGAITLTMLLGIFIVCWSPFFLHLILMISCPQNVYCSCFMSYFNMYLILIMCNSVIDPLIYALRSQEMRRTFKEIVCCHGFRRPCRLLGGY"}, "[3]": {"biological_target": "mouse melanocortin-3 receptor (mouse) (UniProt P33033)", "sequence (P33033 whole entry)": "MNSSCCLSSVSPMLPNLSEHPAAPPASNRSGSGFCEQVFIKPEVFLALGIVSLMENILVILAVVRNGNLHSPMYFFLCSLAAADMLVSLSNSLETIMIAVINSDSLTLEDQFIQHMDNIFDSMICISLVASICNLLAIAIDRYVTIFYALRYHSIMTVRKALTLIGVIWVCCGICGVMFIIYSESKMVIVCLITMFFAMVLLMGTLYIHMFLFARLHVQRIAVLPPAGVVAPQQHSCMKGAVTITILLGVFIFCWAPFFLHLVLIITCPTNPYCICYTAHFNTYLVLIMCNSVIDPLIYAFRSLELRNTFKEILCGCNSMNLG"}, "[4]": {"biological_target": "mouse melanocortin-4 receptor (mouse) (UniProt P56450)", "sequence (P56450 whole entry)": "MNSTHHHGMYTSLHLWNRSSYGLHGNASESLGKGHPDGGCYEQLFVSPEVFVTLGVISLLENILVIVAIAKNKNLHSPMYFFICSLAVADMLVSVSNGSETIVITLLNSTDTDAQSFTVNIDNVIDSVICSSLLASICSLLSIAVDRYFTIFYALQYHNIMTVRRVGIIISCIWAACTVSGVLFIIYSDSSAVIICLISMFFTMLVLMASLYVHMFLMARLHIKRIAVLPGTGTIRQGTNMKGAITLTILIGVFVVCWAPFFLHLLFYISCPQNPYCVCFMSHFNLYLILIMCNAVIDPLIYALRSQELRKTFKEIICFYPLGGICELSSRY", "experiment": "radioligand binding"}, "[5]": {"biological_target": "mouse melanocortin-3 receptor (mouse) (UniProt P33033)", "experiment": "radioligand binding"}}}
{"binder": "HRFF (HELM PEPTIDE1{[ac].H.R.[O=C([C@@H](Cc1ccc(I)cc1)N[*:1])[*:2]].F.[am]}$$$$V2.0; SMILES CC(=O)N[C@@H](Cc1c[nH]cn1)C(=O)N[C@@H](CCCNC(=N)N)C(=O)N[C@H](Cc1ccc(I)cc1)C(=O)N[C@@H](Cc1ccccc1)C(N)=O)", "note": "[compound 26]", "values": [{"measurement": "cAMP AlphaScreen, HEK293 cells stably expressing the receptor: agonist EC50", "setting": "[1]", "value": 92, "unit": "nM"}, {"measurement": "cAMP AlphaScreen, HEK293 cells stably expressing the receptor: agonist EC50", "setting": "[2]", "value": 680, "unit": "nM"}, {"measurement": "cAMP AlphaScreen, HEK293 cells stably expressing the receptor: agonist EC50", "setting": "[3]", "value": 1100, "unit": "nM"}]}
{"binder": "RRFF (HELM PEPTIDE1{[ac].R.R.[O=C([C@@H](Cc1ccc(I)cc1)N[*:1])[*:2]].F.[am]}$$$$V2.0; SMILES CC(=O)N[C@@H](CCCNC(=N)N)C(=O)N[C@@H](CCCNC(=N)N)C(=O)N[C@H](Cc1ccc(I)cc1)C(=O)N[C@@H](Cc1ccccc1)C(N)=O)", "note": "[compound 25]", "values": [{"measurement": "IC50", "setting": "[4]", "value": 455, "unit": "nM"}, {"measurement": "IC50", "setting": "[5]", "value": 6500, "unit": "nM"}, {"measurement": "cAMP AlphaScreen, HEK293 cells stably expressing the receptor: agonist EC50", "setting": "[3]", "value": 540, "unit": "nM"}]}
